Measurements: patent publication US9884093B2 (Eli Lilly and Company, priority 2015, dated 2018)
Read-outs that look alike come from different tables or passages of the source.

Assays:
[1] = biological target: T1, human glucagon receptor (hGcg-R) (Homo sapiens, UniProt P47871); experiment: hGcg-R functional cAMP assay; assay type: cell-based; settings: read-out: EC50 Gcg Receptor Assay
T1 construct: expressed in transfected cells; host or cells: 293HEK cells, hygromycin-selected

[2] = biological target: human Glucagon-Like Peptide-1 receptor (hGLP-1-R) (Homo sapiens, UniProt P43220); experiment: hGLP-1-R functional cAMP assay; settings: read-out: EC50 GLP-1 Receptor Assay
Sequence of human Glucagon-Like Peptide-1 receptor (hGLP-1-R) (P43220 24-463): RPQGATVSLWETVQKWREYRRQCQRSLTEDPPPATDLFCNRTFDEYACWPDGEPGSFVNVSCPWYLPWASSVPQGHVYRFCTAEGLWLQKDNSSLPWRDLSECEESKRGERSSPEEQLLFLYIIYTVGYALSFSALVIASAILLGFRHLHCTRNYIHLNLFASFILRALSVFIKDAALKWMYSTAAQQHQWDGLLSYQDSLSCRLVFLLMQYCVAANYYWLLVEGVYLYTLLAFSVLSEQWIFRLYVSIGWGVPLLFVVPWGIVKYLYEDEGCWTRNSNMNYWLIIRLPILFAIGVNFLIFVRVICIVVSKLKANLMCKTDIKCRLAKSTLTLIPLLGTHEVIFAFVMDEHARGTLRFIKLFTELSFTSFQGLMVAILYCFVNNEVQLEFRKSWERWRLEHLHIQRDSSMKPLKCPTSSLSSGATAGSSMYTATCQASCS
Procedure: (§1) The hGIP-R functional assay uses hGIP-R (Usdin, T. B., Gruber, C., Modi, W. and Bonner, T. I., GenBank: AAA84418.1) cloned into pcDNA3.1 (Promega)-NeoR plasmid. The hGIP-R-pcDNA3.1/Neo plasmid is transfected into Chinese Hamster Ovary cells, CHO-S, for suspension cultures and selected in the presence of 500 μg/mL Geneticin (Invitrogen).

[3] = Stability in co-formulation with GLP-1R agonist (SEC-HPLC, RP-HPLC); assay type: physicochemical; settings: four weeks
Procedure: Examples 1 and 3 are prepared and dialyzed against C6.5 (10 mM Citrate pH 6.5) using the same method as described above for preparation into T7 buffer. Compounds are formulated separately at 1 mg/mL peptide in buffer C6.5, C6.5M (10 mM Citrate, 46.4 mg/mL D-mannitol, pH 6.5), C6.5T (10 mM Citrate, 0.02% polysorbate-80, pH 6.5), and C6.5MT (10 mM Citrate, 46.4 mg/mL D-mannitol, 0.02% polysorbate-80, pH 6.5). A stock concentration of 46.5 mg/mL of dulaglutide in C6.5 is used to formulate dulaglutide at 3 mg/mL in C6.5 and C6.5MT. Co-formulations in C6.5MT are prepared having 3 mg/mL dulaglutide and 1 mg/mL Example 1, or 3 mg/mL dulaglutide and 1 mg/mL Example 3. Each formulated sample is transferred to three vials and maintained at 4° C., 25° C. and 40° C. Samples are assessed every two weeks for a total of four weeks. Samples are visually assessed for turbidity and phase separation. Stability is assessed by RP-HPLC and SEC-HPLC as described above. Both described HPLC methods give good separation of Example compounds and dulaglutide main peaks as well as all degradation peaks produced by stressing the sample at pH 9 and 40° C. for 3 days.

[4] = biological target: T2, glucose-dependent insulinotropic polypeptide receptor, hGIP-R (Homo sapiens, UniProt P48546); experiment: hGIP-R functional cAMP assay; settings: read-out: EC50 GIP Receptor Assay
T2 sequence (P48546 22-466): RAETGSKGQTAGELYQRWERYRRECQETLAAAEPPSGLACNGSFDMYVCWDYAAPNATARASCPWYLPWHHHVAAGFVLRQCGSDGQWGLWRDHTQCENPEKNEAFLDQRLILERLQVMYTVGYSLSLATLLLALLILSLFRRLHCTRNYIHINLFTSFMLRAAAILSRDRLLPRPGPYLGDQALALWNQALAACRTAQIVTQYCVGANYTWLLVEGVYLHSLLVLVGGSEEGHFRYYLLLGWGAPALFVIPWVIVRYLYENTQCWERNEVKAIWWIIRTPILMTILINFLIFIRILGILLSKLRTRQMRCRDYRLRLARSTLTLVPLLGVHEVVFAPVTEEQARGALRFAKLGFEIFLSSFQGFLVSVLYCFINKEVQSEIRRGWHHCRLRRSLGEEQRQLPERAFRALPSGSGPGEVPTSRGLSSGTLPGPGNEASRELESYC
Procedure: as §1

T1 sequence (P47871 26-477): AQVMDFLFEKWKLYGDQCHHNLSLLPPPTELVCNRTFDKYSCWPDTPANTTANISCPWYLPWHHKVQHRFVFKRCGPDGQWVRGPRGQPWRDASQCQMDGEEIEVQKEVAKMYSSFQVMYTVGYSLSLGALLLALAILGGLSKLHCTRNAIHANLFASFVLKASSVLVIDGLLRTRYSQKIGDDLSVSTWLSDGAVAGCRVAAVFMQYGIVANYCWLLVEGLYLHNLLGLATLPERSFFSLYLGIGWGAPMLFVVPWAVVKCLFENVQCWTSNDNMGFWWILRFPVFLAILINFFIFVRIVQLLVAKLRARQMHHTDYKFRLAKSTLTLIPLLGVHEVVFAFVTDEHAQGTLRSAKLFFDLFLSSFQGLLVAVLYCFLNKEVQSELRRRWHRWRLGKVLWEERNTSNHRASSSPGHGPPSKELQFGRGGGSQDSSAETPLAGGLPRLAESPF

EC50 ([1]; sample C6.5-4 C.-4 wk): 51.9 ± 68.1 nM
EC50 ([1]; sample C6.5-40 C.-4 wk): > 100 nM
EC50 ([1]; sample C6.5MT-4 C.-4 wk): 54 ± 65 nM
EC50 ([1]; sample C6.5MT-40 C.-4 wk): > 100 nM
EC50 ([2]; sample C6.5-4 C.-4 wk): 0.37 ± 0.11 nM
EC50 ([2]; sample C6.5-40 C.-4 wk): 0.31 ± 0.17 nM
EC50 ([2]; sample C6.5MT-4 C.-4 wk): 0.4 ± 0.14 nM
EC50 ([2]; sample C6.5MT-40 C.-4 wk): 0.29 ± 0.09 nM
EC50 ([4]; sample C6.5-4 C.-4 wk): > 100 nM
EC50 ([4]; sample C6.5-40 C.-4 wk): > 100 nM
EC50 ([4]; sample C6.5MT-4 C.-4 wk): > 100 nM
EC50 ([4]; sample C6.5MT-40 C.-4 wk): > 100 nM
Substance: dulaglutide
GLP-1-Fc Δ % Main Peak ([3]; RP-HPLC, C6.5, 4° C.): −1.45%
GLP-1-Fc Δ % Main Peak ([3]; RP-HPLC, C6.5, 25° C.): >−10%
GLP-1-Fc Δ % Main Peak ([3]; RP-HPLC, C6.5, 40° C.): −9.96%
GLP-1-Fc Δ % Main Peak ([3]; RP-HPLC, C6.5MT, 4° C.): −0.46%
GLP-1-Fc Δ % Main Peak ([3]; RP-HPLC, C6.5MT, 25° C.): −0.8%
GLP-1-Fc Δ % Main Peak ([3]; RP-HPLC, C6.5MT, 40° C.): −7.47%
GLP-1-Fc Δ % Main Peak ([3]; SEC-HPLC, C6.5, 4° C.): 0.19%
GLP-1-Fc Δ % Main Peak ([3]; SEC-HPLC, C6.5, 25° C.): −0.54%
GLP-1-Fc Δ % Main Peak ([3]; SEC-HPLC, C6.5, 40° C.): >−10%
GLP-1-Fc Δ % Main Peak ([3]; SEC-HPLC, C6.5MT, 4° C.): 0.29%
GLP-1-Fc Δ % Main Peak ([3]; SEC-HPLC, C6.5MT, 25° C.): −0.87%
GLP-1-Fc Δ % Main Peak ([3]; SEC-HPLC, C6.5MT, 40° C.): −0.83%
